# Measured values taken from the supplement of paper PMC11316812.
# ± gives the standard deviation of the averaged measurements.
# Legend:
# MCF7 = experiment: percentage of EdU-negative (G0-arrested) nuclei per well, 72 h; higher = more G0 arrest; conditions: reference: sequence is the full UniProt precursor, the tested protein was the secreted form or ectodomain
# hTERT-HMEC = experiment: as above; conditions: reference: sequence is the full UniProt precursor, the tested protein was the secreted form or ectodomain
# [1] = protein concentration 0.0220325 µM
# [2] = protein concentration 0.220325 µM
# [3] = protein concentration 0.03125 µM
# [4] = protein concentration 0.3125 µM
# [5] = protein concentration 0.0225 µM
# [6] = protein concentration 0.022665 µM
# [7] = protein concentration 0.22665 µM
# 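Also: secreted proteins added to cultured cells, EdU pulse at the end, nuclei found by Hoechst imaging, EdU status from nuclear versus surrounding ring intensity ratio, PBS as neutral control.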
sequence,measurement,setting,value
MAGLMTIVTSLLFLGVCAHHIIPTGSVVIPSPCCMFFVSKRIPENRVVSYQLSSRSTCLKAGVIFTTKKGQQFCGDPKQEWVQRYMKNLDAKQKKASPRARAVAVKGPVQRYPGNQTTC,percentage of EdU-negative,MCF7; [1],23.9 ± 1.6%
same,percentage of EdU-negative,MCF7; [2],24.7 ± 0.47%
same,percentage of EdU-negative,hTERT-HMEC; [1],4.96 ± 0.78%
same,percentage of EdU-negative,hTERT-HMEC; [2],5.694 ± 0.035%
MGLIWLLLLSLLEPGWPAAGPGARLRRDAGGRGGVYEHLGGAPRRRKLYCATKYHLQLHPSGRVNGSLENSAYSILEITAVEVGIVAIRGLFSGRYLAMNKRGRLYASEHYSAECEFVERIHELGYNTYASRLYRTVSSTPGARRQPSAERLWYVSVNGKGRPRRGFKTRRTQKSSLFLPRVLDHRDHEMVRQLQSGLPRPPGKGVQPRRRRQKQSPDNLEPSHVQASRLGSQLEASAH,percentage of EdU-negative,MCF7; protein concentration 0.01 µM,26.1 ± 0.46%
same,percentage of EdU-negative,MCF7; protein concentration 0.1 µM,27.4 ± 0.42%
same,percentage of EdU-negative,hTERT-HMEC; protein concentration 0.01 µM,5.1 ± 0.81%
same,percentage of EdU-negative,hTERT-HMEC; protein concentration 0.1 µM,6.93 ± 0.14%
MKLWDVVAVCLVLLHTASAFPLPAGKRPPEAPAEDRSLGRRRAPFALSSDSNMPEDYPDQFDDVMDFIQATIKRLKRSPDKQMAVLPRRERNRQAAAANPENSRGKGRRGQRGKNRGCVLTAIHLNVTDLGLGYETKEELIFRYCSGSCDAAETTYDKILKNLSRNRRLVSDKVGQACCRPIAFDDDLSFLDDNLVYHILRKHSAKRCGCI,percentage of EdU-negative,MCF7; [3],24.9 ± 0.95%
same,percentage of EdU-negative,MCF7; [4],29.1 ± 0.3%
same,percentage of EdU-negative,hTERT-HMEC; [3],5.08 ± 0.53%
same,percentage of EdU-negative,hTERT-HMEC; [4],5.86 ± 0.094%
MRTADREARPGLPSLLLLLLAGAGLSAASPPAAPRFNVSLDSVPELRWLPVLRHYDLDLVRAAMAQVIGDRVPKWVHVLIGKVVLELERFLPQPFTGEIRGMCDFMNLSLADCLLVNLAYESSVFCTSIVAQDSRGHIYHGRNLDYPFGNVLRKLTVDVQFLKNGQIAFTGTTFIGYVGLWTGQSPHKFTVSGDERDKGWWWENAIAALFRRHIPVSWLIRATLSESENFEAAVGKLAKTPLIADVYYIVGGTSPREGVVITRNRDGPADIWPLDPLNGAWFRVETNYDHWKPAPKEDDRRTSAIKALNATGQANLSLEALFQILSVVPVYNNFTIYTTVMSAGSPDKYMTRIRNPSRK,percentage of EdU-negative,MCF7; [5],25.7 ± 0.36%
same,percentage of EdU-negative,MCF7; protein concentration 0.225 µM,29.2 ± 3.5%
same,percentage of EdU-negative,hTERT-HMEC; [5],5.28 ± 0.13%
same,percentage of EdU-negative,hTERT-HMEC; protein concentration 0.225 µM,7.812 ± 0.044%
MAMRLILFFGALFGHIYCLETFVGDQVLEIVPSNEEQIKNLLQLEAQEHLQLDFWKSPTTPGETAHVRVPFVNVQAVKVFLESQGIAYSIMIEDVQVLLDKENEEMLFNRRRERSGNFNFGAYHTLEEISQEMDNLVAEHPGLVSKVNIGSSFENRPMNVLKFSTGGDKPAIWLDAGIHAREWVTQATALWTANKIVSDYGKDPSITSILDALDIFLLPVTNPDGYVFSQTKNRMWRKTRSKVSGSLCVGVDPNRNWDAGFGGPGASSNPCSDSYHGPSANSEVEVKSIVDFIKSHGKVKAFITLHSYSQLLMFPYGYKCTKLDDFDELSEVAQKAAQSLRSLHGTKYKVGPICSVIYQASGGSIDWSYDYGIKYSFAFELRDTGRYGFLLPARQILPTAEETWLGLKAIMEHVRDHPY,percentage of EdU-negative,MCF7; [5],25.6 ± 2.3%
same,percentage of EdU-negative,MCF7; protein concentration 0.225 µM,24.9 ± 0.71%
same,percentage of EdU-negative,hTERT-HMEC; [5],6 ± 1%
same,percentage of EdU-negative,hTERT-HMEC; protein concentration 0.225 µM,5.16 ± 0.28%
MMCPLWRLLIFLGLLALPLAPHKQPWPGLAQAHRDNKSTLARIIAQGLIKHNAESRIQNIHFGDRLNASAQVAPGLVGWLISGRKHQQQQESSINITNIQLDCGGIQISFHKEWFSANISLEFDLELRPSFDNNIVKMCAHMSIVVEFWLEKDEFGRRDLVIGKCDAEPSSVHVAILTEAIPPKMNQFLYNLKENLQKVLPHMVESQVCPLIGEILGQLDVKLLKSLIEQEAAHEPTHHETSQPSACQAGESPS [Q9BQP9],percentage of EdU-negative,MCF7; [5],25.2 ± 1.2%
same,percentage of EdU-negative,MCF7; protein concentration 0.225 µM,26.8 ± 0.78%
same,percentage of EdU-negative,hTERT-HMEC; [5],4.7 ± 0.18%
same,percentage of EdU-negative,hTERT-HMEC; protein concentration 0.225 µM,12.1 ± 1.2%
MRSAAVLALLLCAGQVTALPVNSPMNKGDTEVMKCIVEVISDTLSKPSPMPVSQECFETLRGDERILSILRHQNLLKELQDLALQGAKERAHQQKKHSGFEDELSEVLENQSSQAELKEAVEEPSSKDVMEKREDSKEAEKSGEATDGARPQALPEPMQESKAEGNNQAPGEEEEEEEEATNTHPPASLPSQKYPGPQAEGDSEGLSQGLVDREKGLSAEPGWQAKREEEEEEEEEAEAGEEAVPEEEGPTVVLNPHPSLGYKEIRKGESRSEALAVDGAGKPGAEEAQDPEGKGEQEHSQQKEEEEEMAVVPQGLFRGGKSGELEQEEERLSKEWEDSKRWSKMDQLAKELTAEKRLEGQEEEEDNRDSSMKLSFRARAYGFRGPGPQLRRGWRPSSREDSLEAGLPLQVRGYPEEKKEEEGSANRRPEDQELESLSAIEAELEKVAHQLQALRRG,percentage of EdU-negative,MCF7; [6],24.2 ± 2.3%
same,percentage of EdU-negative,MCF7; [3],26.2 ± 1.6%
same,percentage of EdU-negative,MCF7; [7],24.9 ± 1.5%
same,percentage of EdU-negative,MCF7; [4],25.6 ± 1.5%
same,percentage of EdU-negative,hTERT-HMEC; [6],4.31 ± 0.57%
same,percentage of EdU-negative,hTERT-HMEC; [3],5.57 ± 0.62%
same,percentage of EdU-negative,hTERT-HMEC; [7],7.26 ± 0.12%
same,percentage of EdU-negative,hTERT-HMEC; [4],5.39 ± 0.89%
